{"source": "patent US11472855", "about": "“RNA-binding protein” (Panitch Schwarze Belisario & Nadel LLP)", "key": {"[1]": {"tested_on": "hPUF_MT(R5:A_13R)3(R6:C_13R)3 Y13R in the R6:C repeats", "assay": "EMSA", "settings": "13Y about 3 times greater"}, "[2]": {"tested_on": "hPUF_MT(R5:G_13R)3(R6:U_13R)3 Y13R in the R6:U repeats", "assay": "EMSA", "settings": "text inconsistent: number 2 greater but prints Tyr>Arg"}, "[3]": {"tested_on": "hPUF_MT(R5:A_13R)3(R6:G_13R)3 Y13R in the R6:G repeats", "assay": "EMSA", "settings": "13Y at least 30 times greater"}, "[4]": {"tested_on": "hPUF_MT(R5:A_13R)3(R6:U_13R)3 Y13R in the R6 repeats", "assay": "EMSA", "settings": "13Y at least 30 times greater"}, "[5]": {"tested_on": "hPUF_MT(R5:C_13R)3(R6:U_13R)3 Y13R in the R6:U repeats", "assay": "EMSA"}, "[6]": {"tested_on": "hPUF_MT(R5:G_13R)(R5:G_13Y)2(R6:U_13Y)3 R13Y in the second and third R5 repeats (Homo sapiens)", "assay": "EMSA", "settings": "FIG. 61; Arg>Tyr between G and U; 4 C; construct name in text appears misprinted as A/G version"}, "[7]": {"target": "T1, hPUF_MT(R5:G_13R)3(R6:C_13Y)3", "T1 chain": "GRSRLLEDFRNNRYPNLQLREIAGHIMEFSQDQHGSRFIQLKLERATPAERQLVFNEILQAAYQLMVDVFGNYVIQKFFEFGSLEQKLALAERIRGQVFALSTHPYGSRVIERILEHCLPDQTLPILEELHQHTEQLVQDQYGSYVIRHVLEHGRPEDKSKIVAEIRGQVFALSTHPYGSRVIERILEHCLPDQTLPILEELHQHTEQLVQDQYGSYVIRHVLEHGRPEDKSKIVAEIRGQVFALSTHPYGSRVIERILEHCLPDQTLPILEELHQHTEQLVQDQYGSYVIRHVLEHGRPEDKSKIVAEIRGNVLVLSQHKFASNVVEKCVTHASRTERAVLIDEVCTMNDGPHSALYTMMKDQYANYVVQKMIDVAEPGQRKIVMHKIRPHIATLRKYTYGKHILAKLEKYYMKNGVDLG", "assay": "EMSA", "settings": "label: Alexa680 at 5' and 3'"}, "[8]": {"target": "T2, hPUF_MT(R5:C_13R)3(R6:U_13Y)3", "T2 chain": "T1 chain with E112R, S144N, R148Q, E184R, S216N, R220Q, E256R, S288N, R292Q", "assay": "EMSA", "settings": "label: Alexa680 at 5' and 3'"}, "[9]": {"target": "T3, hPUF_MT(1-2-5-6-5-6-5-6-5-6-7-8)", "T3 chain": "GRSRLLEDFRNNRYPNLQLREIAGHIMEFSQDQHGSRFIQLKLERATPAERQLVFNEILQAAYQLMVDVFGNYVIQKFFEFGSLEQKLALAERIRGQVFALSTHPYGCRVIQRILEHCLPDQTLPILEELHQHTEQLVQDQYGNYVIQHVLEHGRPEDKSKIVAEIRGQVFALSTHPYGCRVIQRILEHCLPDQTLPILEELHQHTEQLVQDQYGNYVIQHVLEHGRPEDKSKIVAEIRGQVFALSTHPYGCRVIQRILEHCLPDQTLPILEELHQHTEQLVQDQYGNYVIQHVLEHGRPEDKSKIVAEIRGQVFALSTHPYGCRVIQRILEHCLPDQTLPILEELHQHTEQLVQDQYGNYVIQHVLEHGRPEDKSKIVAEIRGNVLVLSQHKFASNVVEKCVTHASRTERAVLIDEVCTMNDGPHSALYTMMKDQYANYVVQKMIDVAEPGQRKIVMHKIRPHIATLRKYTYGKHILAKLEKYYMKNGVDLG", "assay": "EMSA; greater than MT(R3→R5, R4→R6)", "settings": "label: Alexa680 at 5' and 3'"}, "[10]": {"target": "T4, hPUF_MT(R2_N12S,Q16R, R3→R5, R4→R6) (R2 repeat N12S,Q16R)", "T4 chain": "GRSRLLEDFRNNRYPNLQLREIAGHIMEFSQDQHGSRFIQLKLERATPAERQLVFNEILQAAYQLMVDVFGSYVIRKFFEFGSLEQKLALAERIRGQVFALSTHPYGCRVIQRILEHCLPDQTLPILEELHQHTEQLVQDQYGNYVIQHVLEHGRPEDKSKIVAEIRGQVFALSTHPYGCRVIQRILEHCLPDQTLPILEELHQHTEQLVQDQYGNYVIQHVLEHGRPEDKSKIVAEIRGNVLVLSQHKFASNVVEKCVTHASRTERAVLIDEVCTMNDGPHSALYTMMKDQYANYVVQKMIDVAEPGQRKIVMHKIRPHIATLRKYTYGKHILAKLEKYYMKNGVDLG", "assay": "EMSA; binds C exclusively", "settings": "label: Alexa680 at 5' and 3'"}, "[11]": {"target": "T5, hPUF_MT(R2_N12S,Q16E, R3→R5, R4→R6) (R2 repeat N12S,Q16E)", "T5 chain": "T4 chain with R76E", "assay": "EMSA; binds G exclusively", "settings": "label: Alexa680 at 5' and 3'"}, "hPUF_MT(R3→R5, R4→R6) [12]": {"target": "T6, hPUF_MT(R3→R5, R4→R6)", "T6 chain": "T4 chain with S72N, R76Q", "assay": "EMSA; binds G exclusively at R7 position", "settings": "label: Alexa680 at 5' and 3'"}, "[13]": {"target": "T7, hPUF_MT(R7_S12N,E16Q, R3→R5, R4→R6) (R7 repeat S12N,E16Q)", "T7 chain": "T4 chain with S72N, R76Q, S252N, E256Q", "assay": "EMSA; binds U exclusively", "settings": "label: Alexa680 at 5' and 3'"}, "[14]": {"target": "T8, hPUF_MT(R7_E16R, R3→R5, R4→R6) (R7 repeat E16R)", "T8 chain": "T4 chain with S72N, R76Q, E256R", "assay": "EMSA; binds C and U", "settings": "label: Alexa680 at 5' and 3'"}, "[15]": {"target": "T9, hPUF_MT(R8_N12S,Q16E, R3→R5, R4→R6) (R8 repeat N12S,Q16E)", "T9 chain": "T4 chain with S72N, R76Q, N295S, Q299E", "assay": "EMSA; binds G exclusively", "settings": "label: Alexa680 at 5' and 3'"}, "hPUF_MT(R3→R5, R4→R6) [16]": {"target": "T6, hPUF_MT(R3→R5, R4→R6)", "assay": "EMSA; binds U exclusively at R8 position", "settings": "label: Alexa680 at 5' and 3'"}}, "note": "Substitutions are numbered along the chain they refer to.", "data": [{"molecule": "CCAGAAUUGCACACAUAUUCG [OTS-2004 (Example 5-4)]", "values": [{"measurement": "binding signal (fold of 13Y protein)", "setting": "[1]", "result": 0.33}]}, {"molecule": "CCAGAAUUGUGUGUGUAUUCG [OTS-2004 (Example 5-6)]", "values": [{"measurement": "binding signal (fold of R6 13Y protein)", "setting": "[2]", "result": 3}]}, {"molecule": "CCAGAAUUGGAGAGAUAUUCG [OTS-2008]", "values": [{"measurement": "binding signal (fold of 13Y protein)", "setting": "[3]", "result": "< 0.033"}]}, {"molecule": "CCAGAAUUGUAUAUAUAUUCG [OTS-1844]", "values": [{"measurement": "binding signal (fold of 13Y protein)", "setting": "[4]", "result": "< 0.033"}]}, {"molecule": "CCAGAAUUGUCUCUCUAUUCG [OTS-2006]", "values": [{"measurement": "binding signal (fold of 13Y protein)", "setting": "[5]", "result": 0.1}]}, {"molecule": "CCAGAAUUGUGUGUGUAUUCG [OTS-2004 (Example 5-6, GU repeat)]", "values": [{"measurement": "binding signal (fold weaker than (R5:G 13R)3(R6:U 13Y)3)", "setting": "[6]", "result": 30}]}, {"molecule": "CCAGAAUUGCGCGCGUAUUCG (ssRNA)", "note": "[OTS-2007]", "values": [{"measurement": "binding result", "setting": "[7]", "result": "binds"}]}, {"molecule": "CCAGAAUUGUCUCUCUAUUCG (ssRNA)", "note": "[OTS-2006]", "values": [{"measurement": "binding result", "setting": "[8]", "result": "binds"}]}, {"molecule": "CCAGAAUUGUAUAUAUAUAUUCG (ssRNA)", "note": "[OTS-1924]", "values": [{"measurement": "binding result", "setting": "[9]", "result": "binds"}]}, {"molecule": "CCAGAAUUGUAUAGAUUCG (ssRNA)", "note": "[OTS-2024]", "values": [{"measurement": "binding result", "setting": "[10]", "result": "no binding"}, {"measurement": "binding result", "setting": "[11]", "result": "binds"}]}, {"molecule": "CCAGAAUUGUAUAAAUUCG (ssRNA)", "note": "[OTS-2023]", "values": [{"measurement": "binding result", "setting": "[10]", "result": "no binding"}, {"measurement": "binding result", "setting": "[11]", "result": "no binding"}]}, {"molecule": "CCAGAAUUGUAUACAUUCG (ssRNA)", "note": "[OTS-2025]", "values": [{"measurement": "binding result", "setting": "[10]", "result": "binds"}, {"measurement": "binding result", "setting": "[11]", "result": "no binding"}]}, {"molecule": "CCAGAAUUAUAUAUAUUCG (ssRNA)", "note": "[OTS-1754]", "values": [{"measurement": "binding result", "setting": "hPUF_MT(R3→R5, R4→R6) [12]", "result": "no binding"}]}, {"molecule": "CCAGAAUUCUAUAUAUUCG (ssRNA)", "note": "[OTS-2033]", "values": [{"measurement": "binding result", "setting": "[13]", "result": "no binding"}, {"measurement": "binding result", "setting": "hPUF_MT(R3→R5, R4→R6) [12]", "result": "no binding"}, {"measurement": "binding result", "setting": "[14]", "result": "binds"}]}, {"molecule": "CCAGAAUGGUAUAUAUUCG (ssRNA)", "note": "[OTS-2034]", "values": [{"measurement": "binding result", "setting": "[15]", "result": "binds"}, {"measurement": "binding result", "setting": "hPUF_MT(R3→R5, R4→R6) [16]", "result": "no binding"}]}]}
